# Results: doi:10.1101/808618 (bioRxiv, 2020)
# Biological target: the molecule itself
# Assay: SEC
row,Protein,binding result
1,Plasmodium falciparum GMP synthetase wildtype (enzyme) MEGEEYDKILVLNFGSQYFHLIVKRLNNIKIFSETKDYGVELKDIKDMNIKGVILSGGPYSVTEAGSPHLKKEVFEYFLEKKIPIFGICYGMQEIAVQMNGEVKKSKTSEYGCTDVNILRNDNINNITYCRNFGDSSSAMDLYSNYKLMNETCCLFENIKSDITTVWMNHNDEVTKIPENFYLVSSSENCLICSIYNKEYNIYGVQYHPEVYESLDGELMFYNFAYNICKCKKQFDPIRYHELELKNIEKYKHDHYVIAAMSGGIDSTVAAAYTHKIFKERFFGIFIDNGLLRKNEAENVYTFLKSTFPDMNITKIDASENFLSNLQGVTDPEQKRKIIGKLFIEEFEKAVNNIDIDINKTFLLQGTLYPDIIESKCSKNLSDTIKTHHNVGGLPKNLKFKLFEPFKYLFKDDVKTLSRELNLPEEITNRHPFPGPGLAIRVIGEINKHKLNILREVDDIFINDLKQYGLYNQISQAFAVLLSSKSVGVRGDARSYDYVCVLRAVKTSSFMTANWYQIPYDILDKITTRILSEVKGVNRILYDVSSKPPATIEFE,binds
2,"PfGMPS R539L (enzyme, Plasmodium falciparum) MEGEEYDKILVLNFGSQYFHLIVKRLNNIKIFSETKDYGVELKDIKDMNIKGVILSGGPYSVTEAGSPHLKKEVFEYFLEKKIPIFGICYGMQEIAVQMNGEVKKSKTSEYGCTDVNILRNDNINNITYCRNFGDSSSAMDLYSNYKLMNETCCLFENIKSDITTVWMNHNDEVTKIPENFYLVSSSENCLICSIYNKEYNIYGVQYHPEVYESLDGELMFYNFAYNICKCKKQFDPIRYHELELKNIEKYKHDHYVIAAMSGGIDSTVAAAYTHKIFKERFFGIFIDNGLLRKNEAENVYTFLKSTFPDMNITKIDASENFLSNLQGVTDPEQKRKIIGKLFIEEFEKAVNNIDIDINKTFLLQGTLYPDIIESKCSKNLSDTIKTHHNVGGLPKNLKFKLFEPFKYLFKDDVKTLSRELNLPEEITNRHPFPGPGLAIRVIGEINKHKLNILREVDDIFINDLKQYGLYNQISQAFAVLLSSKSVGVRGDARSYDYVCVLRAVKTSSFMTANWYQIPYDILDKITTRILSEVKGVNLILYDVSSKPPATIEFE",binds
3,"PfGMPS K547L (enzyme, Plasmodium falciparum) MEGEEYDKILVLNFGSQYFHLIVKRLNNIKIFSETKDYGVELKDIKDMNIKGVILSGGPYSVTEAGSPHLKKEVFEYFLEKKIPIFGICYGMQEIAVQMNGEVKKSKTSEYGCTDVNILRNDNINNITYCRNFGDSSSAMDLYSNYKLMNETCCLFENIKSDITTVWMNHNDEVTKIPENFYLVSSSENCLICSIYNKEYNIYGVQYHPEVYESLDGELMFYNFAYNICKCKKQFDPIRYHELELKNIEKYKHDHYVIAAMSGGIDSTVAAAYTHKIFKERFFGIFIDNGLLRKNEAENVYTFLKSTFPDMNITKIDASENFLSNLQGVTDPEQKRKIIGKLFIEEFEKAVNNIDIDINKTFLLQGTLYPDIIESKCSKNLSDTIKTHHNVGGLPKNLKFKLFEPFKYLFKDDVKTLSRELNLPEEITNRHPFPGPGLAIRVIGEINKHKLNILREVDDIFINDLKQYGLYNQISQAFAVLLSSKSVGVRGDARSYDYVCVLRAVKTSSFMTANWYQIPYDILDKITTRILSEVKGVNRILYDVSSLPPATIEFE",binds
4,"PfGMPS D413A (enzyme, Plasmodium falciparum) MEGEEYDKILVLNFGSQYFHLIVKRLNNIKIFSETKDYGVELKDIKDMNIKGVILSGGPYSVTEAGSPHLKKEVFEYFLEKKIPIFGICYGMQEIAVQMNGEVKKSKTSEYGCTDVNILRNDNINNITYCRNFGDSSSAMDLYSNYKLMNETCCLFENIKSDITTVWMNHNDEVTKIPENFYLVSSSENCLICSIYNKEYNIYGVQYHPEVYESLDGELMFYNFAYNICKCKKQFDPIRYHELELKNIEKYKHDHYVIAAMSGGIDSTVAAAYTHKIFKERFFGIFIDNGLLRKNEAENVYTFLKSTFPDMNITKIDASENFLSNLQGVTDPEQKRKIIGKLFIEEFEKAVNNIDIDINKTFLLQGTLYPDIIESKCSKNLSDTIKTHHNVGGLPKNLKFKLFEPFKYLFKDAVKTLSRELNLPEEITNRHPFPGPGLAIRVIGEINKHKLNILREVDDIFINDLKQYGLYNQISQAFAVLLSSKSVGVRGDARSYDYVCVLRAVKTSSFMTANWYQIPYDILDKITTRILSEVKGVNRILYDVSSKPPATIEFE",binds
5,"PfGMPS_K415L (enzyme, Plasmodium falciparum) MEGEEYDKILVLNFGSQYFHLIVKRLNNIKIFSETKDYGVELKDIKDMNIKGVILSGGPYSVTEAGSPHLKKEVFEYFLEKKIPIFGICYGMQEIAVQMNGEVKKSKTSEYGCTDVNILRNDNINNITYCRNFGDSSSAMDLYSNYKLMNETCCLFENIKSDITTVWMNHNDEVTKIPENFYLVSSSENCLICSIYNKEYNIYGVQYHPEVYESLDGELMFYNFAYNICKCKKQFDPIRYHELELKNIEKYKHDHYVIAAMSGGIDSTVAAAYTHKIFKERFFGIFIDNGLLRKNEAENVYTFLKSTFPDMNITKIDASENFLSNLQGVTDPEQKRKIIGKLFIEEFEKAVNNIDIDINKTFLLQGTLYPDIIESKCSKNLSDTIKTHHNVGGLPKNLKFKLFEPFKYLFKDDVLTLSRELNLPEEITNRHPFPGPGLAIRVIGEINKHKLNILREVDDIFINDLKQYGLYNQISQAFAVLLSSKSVGVRGDARSYDYVCVLRAVKTSSFMTANWYQIPYDILDKITTRILSEVKGVNRILYDVSSKPPATIEFE",binds
6,"PfGMPS_D412A (enzyme, Plasmodium falciparum) MEGEEYDKILVLNFGSQYFHLIVKRLNNIKIFSETKDYGVELKDIKDMNIKGVILSGGPYSVTEAGSPHLKKEVFEYFLEKKIPIFGICYGMQEIAVQMNGEVKKSKTSEYGCTDVNILRNDNINNITYCRNFGDSSSAMDLYSNYKLMNETCCLFENIKSDITTVWMNHNDEVTKIPENFYLVSSSENCLICSIYNKEYNIYGVQYHPEVYESLDGELMFYNFAYNICKCKKQFDPIRYHELELKNIEKYKHDHYVIAAMSGGIDSTVAAAYTHKIFKERFFGIFIDNGLLRKNEAENVYTFLKSTFPDMNITKIDASENFLSNLQGVTDPEQKRKIIGKLFIEEFEKAVNNIDIDINKTFLLQGTLYPDIIESKCSKNLSDTIKTHHNVGGLPKNLKFKLFEPFKYLFKADVKTLSRELNLPEEITNRHPFPGPGLAIRVIGEINKHKLNILREVDDIFINDLKQYGLYNQISQAFAVLLSSKSVGVRGDARSYDYVCVLRAVKTSSFMTANWYQIPYDILDKITTRILSEVKGVNRILYDVSSKPPATIEFE",binds
7,"PfGMPS_K411L (enzyme, Plasmodium falciparum) MEGEEYDKILVLNFGSQYFHLIVKRLNNIKIFSETKDYGVELKDIKDMNIKGVILSGGPYSVTEAGSPHLKKEVFEYFLEKKIPIFGICYGMQEIAVQMNGEVKKSKTSEYGCTDVNILRNDNINNITYCRNFGDSSSAMDLYSNYKLMNETCCLFENIKSDITTVWMNHNDEVTKIPENFYLVSSSENCLICSIYNKEYNIYGVQYHPEVYESLDGELMFYNFAYNICKCKKQFDPIRYHELELKNIEKYKHDHYVIAAMSGGIDSTVAAAYTHKIFKERFFGIFIDNGLLRKNEAENVYTFLKSTFPDMNITKIDASENFLSNLQGVTDPEQKRKIIGKLFIEEFEKAVNNIDIDINKTFLLQGTLYPDIIESKCSKNLSDTIKTHHNVGGLPKNLKFKLFEPFKYLFLDDVKTLSRELNLPEEITNRHPFPGPGLAIRVIGEINKHKLNILREVDDIFINDLKQYGLYNQISQAFAVLLSSKSVGVRGDARSYDYVCVLRAVKTSSFMTANWYQIPYDILDKITTRILSEVKGVNRILYDVSSKPPATIEFE",binds
8,"PfGMPS_N390A (enzyme, Plasmodium falciparum) MEGEEYDKILVLNFGSQYFHLIVKRLNNIKIFSETKDYGVELKDIKDMNIKGVILSGGPYSVTEAGSPHLKKEVFEYFLEKKIPIFGICYGMQEIAVQMNGEVKKSKTSEYGCTDVNILRNDNINNITYCRNFGDSSSAMDLYSNYKLMNETCCLFENIKSDITTVWMNHNDEVTKIPENFYLVSSSENCLICSIYNKEYNIYGVQYHPEVYESLDGELMFYNFAYNICKCKKQFDPIRYHELELKNIEKYKHDHYVIAAMSGGIDSTVAAAYTHKIFKERFFGIFIDNGLLRKNEAENVYTFLKSTFPDMNITKIDASENFLSNLQGVTDPEQKRKIIGKLFIEEFEKAVNNIDIDINKTFLLQGTLYPDIIESKCSKNLSDTIKTHHAVGGLPKNLKFKLFEPFKYLFKDDVKTLSRELNLPEEITNRHPFPGPGLAIRVIGEINKHKLNILREVDDIFINDLKQYGLYNQISQAFAVLLSSKSVGVRGDARSYDYVCVLRAVKTSSFMTANWYQIPYDILDKITTRILSEVKGVNRILYDVSSKPPATIEFE",binds
9,"PfGMPS H389A (enzyme, Plasmodium falciparum) MEGEEYDKILVLNFGSQYFHLIVKRLNNIKIFSETKDYGVELKDIKDMNIKGVILSGGPYSVTEAGSPHLKKEVFEYFLEKKIPIFGICYGMQEIAVQMNGEVKKSKTSEYGCTDVNILRNDNINNITYCRNFGDSSSAMDLYSNYKLMNETCCLFENIKSDITTVWMNHNDEVTKIPENFYLVSSSENCLICSIYNKEYNIYGVQYHPEVYESLDGELMFYNFAYNICKCKKQFDPIRYHELELKNIEKYKHDHYVIAAMSGGIDSTVAAAYTHKIFKERFFGIFIDNGLLRKNEAENVYTFLKSTFPDMNITKIDASENFLSNLQGVTDPEQKRKIIGKLFIEEFEKAVNNIDIDINKTFLLQGTLYPDIIESKCSKNLSDTIKTHANVGGLPKNLKFKLFEPFKYLFKDDVKTLSRELNLPEEITNRHPFPGPGLAIRVIGEINKHKLNILREVDDIFINDLKQYGLYNQISQAFAVLLSSKSVGVRGDARSYDYVCVLRAVKTSSFMTANWYQIPYDILDKITTRILSEVKGVNRILYDVSSKPPATIEFE",binds
10,"PfGMPS E553L (enzyme, Plasmodium falciparum) MEGEEYDKILVLNFGSQYFHLIVKRLNNIKIFSETKDYGVELKDIKDMNIKGVILSGGPYSVTEAGSPHLKKEVFEYFLEKKIPIFGICYGMQEIAVQMNGEVKKSKTSEYGCTDVNILRNDNINNITYCRNFGDSSSAMDLYSNYKLMNETCCLFENIKSDITTVWMNHNDEVTKIPENFYLVSSSENCLICSIYNKEYNIYGVQYHPEVYESLDGELMFYNFAYNICKCKKQFDPIRYHELELKNIEKYKHDHYVIAAMSGGIDSTVAAAYTHKIFKERFFGIFIDNGLLRKNEAENVYTFLKSTFPDMNITKIDASENFLSNLQGVTDPEQKRKIIGKLFIEEFEKAVNNIDIDINKTFLLQGTLYPDIIESKCSKNLSDTIKTHHNVGGLPKNLKFKLFEPFKYLFKDDVKTLSRELNLPEEITNRHPFPGPGLAIRVIGEINKHKLNILREVDDIFINDLKQYGLYNQISQAFAVLLSSKSVGVRGDARSYDYVCVLRAVKTSSFMTANWYQIPYDILDKITTRILSEVKGVNRILYDVSSKPPATILFE",binds
